The text below walks through data of patent US20180170984, “SITE-SPECIFIC DNA BASE EDITING USING MODIFIED APOBEC ENZYMES” (Regents of the University of Minnesota, published 2018).

One data set has as its target APOBEC3A E72A (1-195) (Homo sapiens, UniProt P31941 SEQ:1-195, E72A). The data set is described as follows: structure; crystal structure 3.15 Å, PDB 5SWW, U-shaped ssDNA, Zn. How it is done: Purified A3A and A3Bctd* were mixed with ˜1.5 molar excess ssDNA (see below) at a final protein concentration of 25-30 mg ml⁻¹. The A3A-ssDNA complex crystal was obtained in a sitting drop formed by mixing the complex solution with an equal volume of 0.2 M NaF, 20% (w/v) PEG3350, 0.1 M Bis-Tris propane (pH 6.5), equilibrated via vapor diffusion against the same reservoir solution. The A3Bctd*-ssDNA crystal was obtained similarly, using a reservoir solution consisting of 0.45 M NaI and 20% (w/v) PEG3350. The crystals were mounted directly from the Intelli-Plate 96 (Art Robbins Instruments) and flash cooled in liquid nitrogen using glycerol or ethylene glycol as cryo-protectant. X-ray diffraction data were collected at the Advanced Photon Source Northeastern Collaborative Access Team beamline 24-ID-C using the selenium K-absorption edge wavelength, and the data were processed with XDS (Kabsch, Acta Crystallogr D Biol Crystallogr 66:125-132, 2010). The A3A-DNA complex crystal is in the space group of P2221. […] Using monomeric A3A (pdb 4XXO; Bohn et al., Structure 23:903-911, 2015) as a search model, the molecular replacement calculations by PHASER (McCoy et al., J Appl Crystallogr 40:658-674, 2007) located four copies of A3A in the asymmetric unit. […]

Another data set has as its target APOBEC3A D131E (Homo sapiens, UniProt P31941 SEQ:1-199, D131E). The data set is described as follows: deamination, 50 nM enzyme, 1 h 37 C. Particulars: tags: myc-His, 293T; label: 3'-fluorescein. The source says: (§1) FIGS. 10A-10C provide corroborating biochemical data for human A3A. FIGS. 10A and 10B show DNA cytosine deamination by human A3A (WT, wild-type) and the indicated mutant derivatives (S, substrate; P, product). The corresponding anti-MYC (A3A) and anti-TUBULIN immunoblots indicated similar levels of A3A and soluble extract in each experiment relative to controls (A3A has two bands due to alternative translation initiation from Met1 or Met13). Reactions in FIG. 10A interrogated active site mutants using a 43-nucleotide 5′-TC-containing ssDNA substrate, and reactions in FIG. 10B additionally interrogated the identity of the −1 position (A, C, G, or T) relative to the target cytosine. The results are representative of two independent experiments. FIG. 10C is a series of graphs quantifying product accumulation in dose response experiments for A3A and the indicated D131 derivatives using the same ssDNA substrates as FIG. 10B.
(§2) Recombinant A3A-myc-His and mutant derivatives were expressed in 293T cells and purified as described by nickel affinity chromatography (Stenglein et al., supra; Li et al., supra; and Carpenter et al. 2012, supra). Activity assays were conducted as outlined above, except reactions were initiated by adding 5 μl of enzyme (2-fold dilutions starting at 200 nM) to 5 μl of 50 mM NaCl, 10 mM HEPES buffer (pH 7.4) containing 1.6 μM fluorescently labeled ssDNA (sequences above). Reactions progressed 1 hour at 37° C. and processed and quantified as described above.

In another data set the target is APOBEC3A D131A (Homo sapiens, UniProt P31941 SEQ:1-199, D131A). The data set is described as follows: deamination, 50 nM enzyme, 1 h 37 C. Particulars: tags: myc-His, 293T; label: 3'-fluorescein.
APOBEC3A D131A, sequence (P31941 whole entry D131A): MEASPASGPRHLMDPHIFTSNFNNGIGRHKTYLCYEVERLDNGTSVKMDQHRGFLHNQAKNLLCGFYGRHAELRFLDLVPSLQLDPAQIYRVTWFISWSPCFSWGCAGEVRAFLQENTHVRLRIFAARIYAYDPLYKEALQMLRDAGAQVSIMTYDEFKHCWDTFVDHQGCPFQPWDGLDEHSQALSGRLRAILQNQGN
From the text: as §1, §2

For another data set, the target named is APOBEC3A D131T (Homo sapiens, UniProt P31941 SEQ:1-199, D131T). The data set is described as follows: deamination, 50 nM enzyme, 1 h 37 C. The settings on record: tags: myc-His, 293T; label: 3'-fluorescein.
APOBEC3A D131T, sequence (P31941 whole entry D131T): as the sequence (P31941 whole entry D131A) above, with A131T counted along it
From the text: as §1, §2

A further data set concerns the target APOBEC3A wild-type (Homo sapiens, UniProt P31941 SEQ:1-199). The data set is described as follows: deamination, 50 nM enzyme, 1 h 37 C. The settings on record: tags: myc-His, 293T; label: 3'-fluorescein.
From the text: as §1, §2

APOBEC3A D131E, sequence (P31941 whole entry D131E): as the sequence (P31941 whole entry D131A) above, with A131E counted along it
APOBEC3A wild-type, sequence (P31941 whole entry): as the sequence (P31941 whole entry D131A) above, with A131D counted along it
APOBEC3A E72A (1-195), sequence (P31941 1-195 E72A): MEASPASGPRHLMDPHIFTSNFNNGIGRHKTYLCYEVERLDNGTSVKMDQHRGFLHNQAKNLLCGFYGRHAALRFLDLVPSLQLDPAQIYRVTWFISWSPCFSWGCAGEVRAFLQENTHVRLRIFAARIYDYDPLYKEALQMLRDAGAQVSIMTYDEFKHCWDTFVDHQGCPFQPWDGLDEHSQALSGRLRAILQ

On to AAAAAAATCGGGAAA (ssDNA) [A3A crystallization ligand], for which the binding result in the data set with APOBEC3A E72A (1-195) is reported as “binds”.

ATTATTATTATTCAAATGGATTTATTTATTTATTTATTTATTT (ssDNA) [-1 TCA substrate]: the activity with APOBEC3A D131E came to 27.3 % product; in the data set with APOBEC3A D131A, 3.7 % product; with APOBEC3A D131T, 96.6 % product; with APOBEC3A wild-type, 98.3 % product.

Regarding ATTATTATTATACAAATGGATTTATTTATTTATTTATTTATTT (ssDNA) [-1 ACA substrate], the activity is 36.6 % product with APOBEC3A D131E, 8.7 % product with APOBEC3A D131A, 16.6 % product with APOBEC3A D131T and 7.6 % product with APOBEC3A wild-type.

With ATTATTATTATGCAAATGGATTTATTTATTTATTTATTTATTT (ssDNA) [-1 GCA substrate], the activity with APOBEC3A D131E was found to be 30.8 % product; with APOBEC3A D131A it was 4 % product; with APOBEC3A D131T, 14.2 % product; with APOBEC3A wild-type, 13 % product.

As for ATTATTATTATCCAAATGGATTTATTTATTTATTTATTTATTT (ssDNA) [-1 CCA substrate], the activity was 10.1 % product with APOBEC3A D131A, 67.5 % product in the data set with APOBEC3A D131T and 42.9 % product in the data set with APOBEC3A wild-type.
